Results taken from article PMC2752026 (The EMBO Journal, 2009).

Target: the molecule itself
Assay: crystal structure

B1: major vault protein MVP, as in intact vault particles purified from rat liver (natural protein, rat (endogenous in rat liver), UniProt Q62667 1-861, looked up)
chain: MATEEAIIRIPPYHYIHVLDQNSNVSRVEVGPKTYIRQDNERVLFAPVRMVTVPPRHYCIVANPVSRDTQSSVLFDITGQVRLRHADQEIRLAQDPFPLYPGEVLEKDITPLQVVLPNTALHLKALLDFEDKNGDKVMAGDEWLFEGPGTYIPQKEVEVVEIIQATVIKQNQALRLRARKECFDREGKGRVTGEEWLVRSVGAYLPAVFEEVLDLVDAVILTEKTALHLRALQNFRDLRGVLHRTGEEWLVTVQDTEAHVPDVYEEVLGVVPITTLGPRHYCVILDPMGPDGKNQLGQKRVVKGEKSFFLQPGERLERGIQDVYVLSEQQGLLLKALQPLEEGESEEKVSHQAGDCWLIRGPLEYVPSAKVEVVEERQAIPLDQNEGIYVQDVKTGKVRAVIGSTYMLTQDEVLWEKELPSGVEELLNLGHDPLADRGQKGTAKPLQPSAPRNKTRVVSYRVPHNAAVQVYDYRAKRARVVFGPELVTLDPEEQFTVLSLSAGRPKRPHARRALCLLLGPDFFTDVITIETADHARLQLQLAYNWHFELKNRNDPAEAAKLFSVPDFVGDACKAIASRVRGAVASVTFDDFHKNSARIIRMAVFGFEMSEDTGPDGTLLPKARDQAVFPQNGLVVSSVDVQSVEPVDQRTRDALQRSVQLAIEITTNSQEAAAKHEAQRLEQEARGRLERQKILDQSEAEKARKELLELEAMSMAVESTGNAKAEAESRAEAARIEGEGSVLQAKLKAQALAIETEAELERVKKVREMELIYARAQLELEVSKAQQLANVEAKKFKEMTEALGPGTIRDLAVAGPEMQVKLLQSLGLKSTLITDGSSPINLFSTAFGLLGLGSDGQPPAQK
  stoichiometry N: 78
